Measured values taken from patent US20160024176A1.

Molecular target: V158 high affinity variant of CD16a (FcγRIIIa) (UniProt P08637)
Assay: HTRF competition with IgG-d2 on HEK293 cells expressing terbium-labelled FcγRIIIa V158

human IgG1 monoclonal antibody gave an EC50 of 220 nM.
